Reference: US20130251724A1 (GlaxoSmithKline, published 2013)
Several values for one entry are separate records, joined by “and”; a condition that tells them apart may be missing. Identical values can stand only once. Like-named read-outs stand apart in the source and are kept apart here.

T1: Human OSM (human, UniProt P13725 26-221)
T1 construct: Recombinant human OSM; also called hOSM; human Oncostatin M
T1 sequence: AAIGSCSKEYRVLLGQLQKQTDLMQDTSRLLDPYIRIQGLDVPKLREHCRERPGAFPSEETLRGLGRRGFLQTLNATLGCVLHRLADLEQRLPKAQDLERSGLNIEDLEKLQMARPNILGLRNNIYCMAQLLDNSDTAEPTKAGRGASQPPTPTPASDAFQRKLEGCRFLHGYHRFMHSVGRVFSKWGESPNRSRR

T2: Cynomolgus OSM (cynomolgus, UniProt A0A2K5VPC6 26-221)
T2 construct: also called Cyno OSM; cynomolgus macaque OSM
T2 sequence: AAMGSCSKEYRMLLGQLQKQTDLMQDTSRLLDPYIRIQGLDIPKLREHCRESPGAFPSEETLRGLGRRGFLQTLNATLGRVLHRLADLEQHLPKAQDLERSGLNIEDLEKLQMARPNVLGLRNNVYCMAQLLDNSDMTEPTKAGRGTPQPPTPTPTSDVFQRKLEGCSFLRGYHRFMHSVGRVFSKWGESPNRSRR

T3: Endogenous human OSM (neutrophil-derived) (human, UniProt P13725 26-221, limits assumed)
T3 construct: Native OSM generated from GM-CSF stimulation of healthy human neutrophils; also called native OSM; endogenous OSM
T3 sequence: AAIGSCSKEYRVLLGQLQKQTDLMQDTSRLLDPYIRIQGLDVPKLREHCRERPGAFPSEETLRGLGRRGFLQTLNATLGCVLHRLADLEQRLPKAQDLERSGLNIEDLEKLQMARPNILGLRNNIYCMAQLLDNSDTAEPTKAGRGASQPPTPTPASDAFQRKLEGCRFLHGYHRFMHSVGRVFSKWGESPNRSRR


Experiments:
Human OSM [1] = biological target: T1, Human OSM; experiment: SPR (ProteOn XPR36 or Biacore T100), captured supernatant, OSM as analyte; hatched cell: separate experiment
Protocol: The initial kinetic analyses for the CDRH3 screen were carried out on the ProteOn XPR36 (Biorad Laboratories) and certain supernatants were selected for more accurate kinetic analysis on the BiaCore T100.
For the ProteOn analysis, anti-human IgG (GE Healthcare/Biacore BR-1008-39) was coupled to a GLM chip (Biorad Laboratories 176-5012) by primary amine coupling. The CDRH3 variants were captured directly on to this surface and recombinant human OSM was passed over the captured antibody surface at 256, 64, 16, 4 and 1 nM, with a buffer injection alone (i.e. 0 nM) used to double reference the binding curves. Following the OSM binding event, the capture surfaces were regenerated: with 3M MgCl₂ the regeneration removed the previously captured antibody ready for another cycle of capture and binding analysis. The data was then fitted to the 1:1 model (with mass transport) inherent to the ProteOn analysis software. The run was carried out using HBS-EP (Biacore/GE-Healthcare BR-1006-69) and the analysis temperature was 25° C.
A similar method was used for analysis of constructs using the Biacore T100, anti-human IgG (GE Healthcare/Biacore BR-1008-39) was coupled to a CM5 chip (GE Healthcare/Biacore BR-1006-68) by primary amine coupling, antibodies were captured on this surface and recombinant human OSM was passed over the captured antibody surface at 256, 64, 16, 4 and 1 nM, with a buffer injection alone (i.e. 0 nM) used to double reference the binding curves. Regeneration was by using pulses of 3M 3M MgCl₂ or 100 mM phosphoric acid or using both reagents. The data was fitted to the 1:1 model inherent to the Biacore T100 analysis software. The run was carried out using HBS-EP (Biacore/GE-Healthcare BR-1006-69) and the analysis temperature was 25° C.

Cynomolgus OSM [2] = biological target: T2, Cynomolgus OSM; experiment: human gp130 ELISA, inhibition of OSM binding to gp130
Human OSM [3] = biological target: T1, Human OSM; experiment: as above
[4] = biological target: T3, Endogenous human OSM …; experiment: gp130 ELISA with endogenous neutrophil-derived human OSM
Cynomolgus OSM [5] = biological target: T2, Cynomolgus OSM; experiment: BIAcore kinetics
Human OSM [6] = biological target: T1, Human OSM; experiment: BIAcore kinetics
Cynomolgus OSM [7] = biological target: T2, Cynomolgus OSM; experiment: cell-based or functional assay
Human OSM [8] = biological target: T1, Human OSM; experiment: cell-based or functional assay
Human OSM [9] = biological target: T1, Human OSM; experiment: cell-based or functional assay; remark: listed apart in the source
Cynomolgus OSM [10] = biological target: T2, Cynomolgus OSM; experiment: human gp130 ELISA, inhibition of OSM binding to gp130; remark: listed apart in the source
Human OSM [11] = biological target: T1, Human OSM; experiment: as above; remark: listed apart in the source
Cynomolgus OSM [12] = biological target: T2, Cynomolgus OSM; experiment: BIAcore kinetics; remark: listed apart in the source
Human OSM [13] = biological target: T1, Human OSM; experiment: BIAcore kinetics; remark: listed apart in the source
Cynomolgus OSM [14] = biological target: T2, Cynomolgus OSM; experiment: cell-based or functional assay; remark: listed apart in the source
Human OSM [15] = biological target: T1, Human OSM; experiment: cell-based or functional assay; remark: listed apart in the source

Kd (Human OSM [1]) [nM] | IC50 (Cynomolgus OSM [2]) | IC50 (Human OSM [3]) | IC50 [4] | Kd (Cynomolgus OSM [5]) [nM] | Kd (Human OSM [6]) [nM] | KB cell neutralisation assay, mean IC50 (Cynomolgus OSM [7]) | KB cell neutralisation assay, mean IC50 (Human OSM [8]) | IC50 (read off the curve); IL-6 release from KB cells stimulated with human OSM, 25% human AB serum (Human OSM [9]) [µg/mL] | IC50 (Cynomolgus OSM [10]) | IC50 (Human OSM [11]) | Kd (Cynomolgus OSM [12]) [nM] | koff (Cynomolgus OSM [12]) [s⁻¹] | kon (Cynomolgus OSM [12]) [M⁻¹ s⁻¹] | Kd (Human OSM [13]) [nM] | koff (Human OSM [13]) [s⁻¹] | kon (Human OSM [13]) [M⁻¹ s⁻¹] | KB cell neutralisation assay, mean IC50 (Cynomolgus OSM [14]) | KB cell neutralisation assay, mean IC50 (Human OSM [15]) | Binder
40.3 |  |  |  |  |  |  |  |  |  |  |  |  |  |  |  |  |  |  | Pos 100B Met (antibody, V domains shown, also called CDRH3 W100B>M) VH: EVQLVESGGGLVQPGGSLRLSCAASGFTFSSYAMSWVRQAPGKGLEWVATISDGGSFTYYLDNVRGRFTISRDNAKNSLYLQMNSLRAEDTAVYYCARDVGHTTFMYFDVWGRGTLVTVSS VL: DIVMTQSPDSLAVSLGERATINCRASKSVSAAGYNFMHWYQQKPGQPPKVLIYYASNLESGVPDRFSGSGSGTDFTLTISSLQAEDVAVYYCLHSREFPFTFGGGTKVEIKR
 | 0.03 µg/mL and 0.2 nM | 0.16 µg/mL and 1.1 nM | 0.02 µg/mL and 0.133 nM | 0.75 | 1.6 | 100 pM and 0.015 µg/ml | 0.018 µg/ml and 120 pM | ~0.03 | 0.049 µg/mL and 0.327 nM | 0.038 µg/mL and 0.253 nM | 0.775 | 4.76e-05 | 61400 | 1.6 | 0.000121 | 75200 | 0.046 µg/ml and 307 pM | 0.163 µg/ml and 1.1 nM | 9G2, murine anti-OSM mAb (antibody, V domains shown, Mouse hybridoma mAb; also called 9G2/C1; 9G2.C1) VH: EVQLVESGGGLVEPGGSLKLSCAASGFTFSNYAMSWVRQTPEKRLEWVATISDGGSFTYYLDNVKGRFTISRDNAKNNLYLQMSHLKSDDTAMYYCARDVGHTTFWYFDVWGTGTTVTVSS VL: DIVLTQSPVFLVISLGQRATISCRASKSVSASGYNFMHWYQQKPGQPPKVLIKYASNLESGVPARFSGSGSGTDFTLNIHPVEEEDAVTYYCQHSREFPFTFGGGTKLEIK
 | 0.06 µg/mL and 0.4 nM | 0.19 µg/mL and 1.3 nM |  | 3.28 | 1.3 | 0.15 µg/ml and 1 nM | 0.054 µg/ml and 360 pM |  |  |  |  |  |  |  |  |  |  |  | 3E3, murine anti-OSM mAb (antibody, V domains shown, Mouse hybridoma mAb; also called 3E3/A1; 3E3.A1) VH: EVQLVESGGDLVKPGGSLKLSCVPSGFTFSSYAMSWVRQTPEKRLEWVATISDGGSFTYYFANIQGRFTISRDNTKNNLYLQMNHLKSEDAGMYYCARDVGLTTFWYFDVWGTGTTVTVSS VL: DIVLTQSPASLTISLGQRATISCRASKSVSPSGYDFMHWYQQKPGQPPKLLIKYASELESGVPGRFSGSGSGTDFTLNIHPVEEEDAATYFCQHSREFPFTFGGGTKLEIK
